Results on six molecules are retold here after article PMC10099770.

B1: FLAG-TNK1, Q13470 S502A (protein)
chain: MLPEAGSLWLLKLLRDIQLAQFYWPILEELNVTRPEHFDFVKPEDLDGIGMGRPAQRRLSEALKRLRSGPKSKNWVYKILGGFAPEHKEPTLPSDSPRHLPEPEGGLKCLIPEGAVCRGELLGSGCFGVVHRGLWTLPSGKSVPVAVKSLRVGPEGPMGTELGDFLREVSVMMNLEHPHVLRLHGLVLGQPLQMVMELAPLGSLHARLTAPAPTPPLLVALLCLFLRQLAGAMAYLGARGLVHRDLATRNLLLASPRTIKVADFGLVRPLGGARGRYVMGGPRPIPYAWCAPESLRHGAFSSASDVWMFGVTLWEMFSGGEEPWAGVPPYLILQRLEDRARLPRPPLCSRALYSLALRCWAPHPADRPSFSHLEGLLQEAGPSEACCVRDVTEPGALRMETGDPITVIEGSSSFHSPDSTIWKGQNGRTFKVGSFPASAVTLADAGGLPATRPVHRGTPARGDQHPGSIDGDRKKANLWDAPPARGQRRNMPLERMKGISRALESVLSLGPRPTGGGSSPPEIRQARAVPQGPPGLPPRPPLSSSSPQPSQPSRERLPWPKRKPPHNHPMGMPGARKAAALSGGLLSDPELQRKIMEVELSVHGVTHQECQTALGATGGDVVSAIRNLKVDQLFHLSSRSRADCWRILEHYQWDLSAASRYVLARP
B2: FLAG-TNK1, Q13470 T392A (protein)
chain: MLPEAGSLWLLKLLRDIQLAQFYWPILEELNVTRPEHFDFVKPEDLDGIGMGRPAQRRLSEALKRLRSGPKSKNWVYKILGGFAPEHKEPTLPSDSPRHLPEPEGGLKCLIPEGAVCRGELLGSGCFGVVHRGLWTLPSGKSVPVAVKSLRVGPEGPMGTELGDFLREVSVMMNLEHPHVLRLHGLVLGQPLQMVMELAPLGSLHARLTAPAPTPPLLVALLCLFLRQLAGAMAYLGARGLVHRDLATRNLLLASPRTIKVADFGLVRPLGGARGRYVMGGPRPIPYAWCAPESLRHGAFSSASDVWMFGVTLWEMFSGGEEPWAGVPPYLILQRLEDRARLPRPPLCSRALYSLALRCWAPHPADRPSFSHLEGLLQEAGPSEACCVRDVAEPGALRMETGDPITVIEGSSSFHSPDSTIWKGQNGRTFKVGSFPASAVTLADAGGLPATRPVHRGTPARGDQHPGSIDGDRKKANLWDAPPARGQRRNMPLERMKGISRSLESVLSLGPRPTGGGSSPPEIRQARAVPQGPPGLPPRPPLSSSSPQPSQPSRERLPWPKRKPPHNHPMGMPGARKAAALSGGLLSDPELQRKIMEVELSVHGVTHQECQTALGATGGDVVSAIRNLKVDQLFHLSSRSRADCWRILEHYQWDLSAASRYVLARP
B3: FLAG-TNK1, Q13470 T91A (protein)
chain: MLPEAGSLWLLKLLRDIQLAQFYWPILEELNVTRPEHFDFVKPEDLDGIGMGRPAQRRLSEALKRLRSGPKSKNWVYKILGGFAPEHKEPALPSDSPRHLPEPEGGLKCLIPEGAVCRGELLGSGCFGVVHRGLWTLPSGKSVPVAVKSLRVGPEGPMGTELGDFLREVSVMMNLEHPHVLRLHGLVLGQPLQMVMELAPLGSLHARLTAPAPTPPLLVALLCLFLRQLAGAMAYLGARGLVHRDLATRNLLLASPRTIKVADFGLVRPLGGARGRYVMGGPRPIPYAWCAPESLRHGAFSSASDVWMFGVTLWEMFSGGEEPWAGVPPYLILQRLEDRARLPRPPLCSRALYSLALRCWAPHPADRPSFSHLEGLLQEAGPSEACCVRDVTEPGALRMETGDPITVIEGSSSFHSPDSTIWKGQNGRTFKVGSFPASAVTLADAGGLPATRPVHRGTPARGDQHPGSIDGDRKKANLWDAPPARGQRRNMPLERMKGISRSLESVLSLGPRPTGGGSSPPEIRQARAVPQGPPGLPPRPPLSSSSPQPSQPSRERLPWPKRKPPHNHPMGMPGARKAAALSGGLLSDPELQRKIMEVELSVHGVTHQECQTALGATGGDVVSAIRNLKVDQLFHLSSRSRADCWRILEHYQWDLSAASRYVLARP
B4: FLAG-TNK1, Q13470 S434A (protein)
chain: MLPEAGSLWLLKLLRDIQLAQFYWPILEELNVTRPEHFDFVKPEDLDGIGMGRPAQRRLSEALKRLRSGPKSKNWVYKILGGFAPEHKEPTLPSDSPRHLPEPEGGLKCLIPEGAVCRGELLGSGCFGVVHRGLWTLPSGKSVPVAVKSLRVGPEGPMGTELGDFLREVSVMMNLEHPHVLRLHGLVLGQPLQMVMELAPLGSLHARLTAPAPTPPLLVALLCLFLRQLAGAMAYLGARGLVHRDLATRNLLLASPRTIKVADFGLVRPLGGARGRYVMGGPRPIPYAWCAPESLRHGAFSSASDVWMFGVTLWEMFSGGEEPWAGVPPYLILQRLEDRARLPRPPLCSRALYSLALRCWAPHPADRPSFSHLEGLLQEAGPSEACCVRDVTEPGALRMETGDPITVIEGSSSFHSPDSTIWKGQNGRTFKVGAFPASAVTLADAGGLPATRPVHRGTPARGDQHPGSIDGDRKKANLWDAPPARGQRRNMPLERMKGISRSLESVLSLGPRPTGGGSSPPEIRQARAVPQGPPGLPPRPPLSSSSPQPSQPSRERLPWPKRKPPHNHPMGMPGARKAAALSGGLLSDPELQRKIMEVELSVHGVTHQECQTALGATGGDVVSAIRNLKVDQLFHLSSRSRADCWRILEHYQWDLSAASRYVLARP
B5: FLAG-TNK1, Q13470 S68A (protein)
chain: MLPEAGSLWLLKLLRDIQLAQFYWPILEELNVTRPEHFDFVKPEDLDGIGMGRPAQRRLSEALKRLRAGPKSKNWVYKILGGFAPEHKEPTLPSDSPRHLPEPEGGLKCLIPEGAVCRGELLGSGCFGVVHRGLWTLPSGKSVPVAVKSLRVGPEGPMGTELGDFLREVSVMMNLEHPHVLRLHGLVLGQPLQMVMELAPLGSLHARLTAPAPTPPLLVALLCLFLRQLAGAMAYLGARGLVHRDLATRNLLLASPRTIKVADFGLVRPLGGARGRYVMGGPRPIPYAWCAPESLRHGAFSSASDVWMFGVTLWEMFSGGEEPWAGVPPYLILQRLEDRARLPRPPLCSRALYSLALRCWAPHPADRPSFSHLEGLLQEAGPSEACCVRDVTEPGALRMETGDPITVIEGSSSFHSPDSTIWKGQNGRTFKVGSFPASAVTLADAGGLPATRPVHRGTPARGDQHPGSIDGDRKKANLWDAPPARGQRRNMPLERMKGISRSLESVLSLGPRPTGGGSSPPEIRQARAVPQGPPGLPPRPPLSSSSPQPSQPSRERLPWPKRKPPHNHPMGMPGARKAAALSGGLLSDPELQRKIMEVELSVHGVTHQECQTALGATGGDVVSAIRNLKVDQLFHLSSRSRADCWRILEHYQWDLSAASRYVLARP

Bounds are passed on as bounds.

The target of one assay is T1, 14-3-3, P63104.
T1 chain: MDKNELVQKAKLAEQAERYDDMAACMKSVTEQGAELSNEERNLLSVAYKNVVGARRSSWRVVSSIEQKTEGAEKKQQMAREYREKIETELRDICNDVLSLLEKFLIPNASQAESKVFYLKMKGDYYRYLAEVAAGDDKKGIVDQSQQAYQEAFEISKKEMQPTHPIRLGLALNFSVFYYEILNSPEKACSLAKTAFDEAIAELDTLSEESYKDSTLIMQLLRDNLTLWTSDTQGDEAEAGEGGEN
In words: co-immunoprecipitation (IP: FLAG) with immunoblot quantification. The note with it: chain shown with the change; HEK293T cells; 3 biological replicates; parent: est. 1.0; read off a plot.
Turning to B1, the ratio to parent was found to be 0.14. The same measure, in the same setting: the result for B2 reads 0.67; that for B3, 0.84; that for B4, 0.88. Still for that read-out and setting: the result for B5 reads 0.8.

A further assay addresses FLAG-AKAP13 T2467A (UniProt Q12802). In words: co-IP; FLAG construct precipitated from transfected HEK293T lysate on anti-DYKDDDDK resin or DYKDDDDK Fab-Trap agarose, 1 hour at 4 °C; lysis buffer 10 mM HEPES KOH pH 7.5, 150 mM KCl, 0.01% IGEPAL with protease and phosphatase inhibitors; washed with PBS three times; immunoblot for 14-3-3.
UniProt Q12802, sequence (Q12802 whole entry T2467A): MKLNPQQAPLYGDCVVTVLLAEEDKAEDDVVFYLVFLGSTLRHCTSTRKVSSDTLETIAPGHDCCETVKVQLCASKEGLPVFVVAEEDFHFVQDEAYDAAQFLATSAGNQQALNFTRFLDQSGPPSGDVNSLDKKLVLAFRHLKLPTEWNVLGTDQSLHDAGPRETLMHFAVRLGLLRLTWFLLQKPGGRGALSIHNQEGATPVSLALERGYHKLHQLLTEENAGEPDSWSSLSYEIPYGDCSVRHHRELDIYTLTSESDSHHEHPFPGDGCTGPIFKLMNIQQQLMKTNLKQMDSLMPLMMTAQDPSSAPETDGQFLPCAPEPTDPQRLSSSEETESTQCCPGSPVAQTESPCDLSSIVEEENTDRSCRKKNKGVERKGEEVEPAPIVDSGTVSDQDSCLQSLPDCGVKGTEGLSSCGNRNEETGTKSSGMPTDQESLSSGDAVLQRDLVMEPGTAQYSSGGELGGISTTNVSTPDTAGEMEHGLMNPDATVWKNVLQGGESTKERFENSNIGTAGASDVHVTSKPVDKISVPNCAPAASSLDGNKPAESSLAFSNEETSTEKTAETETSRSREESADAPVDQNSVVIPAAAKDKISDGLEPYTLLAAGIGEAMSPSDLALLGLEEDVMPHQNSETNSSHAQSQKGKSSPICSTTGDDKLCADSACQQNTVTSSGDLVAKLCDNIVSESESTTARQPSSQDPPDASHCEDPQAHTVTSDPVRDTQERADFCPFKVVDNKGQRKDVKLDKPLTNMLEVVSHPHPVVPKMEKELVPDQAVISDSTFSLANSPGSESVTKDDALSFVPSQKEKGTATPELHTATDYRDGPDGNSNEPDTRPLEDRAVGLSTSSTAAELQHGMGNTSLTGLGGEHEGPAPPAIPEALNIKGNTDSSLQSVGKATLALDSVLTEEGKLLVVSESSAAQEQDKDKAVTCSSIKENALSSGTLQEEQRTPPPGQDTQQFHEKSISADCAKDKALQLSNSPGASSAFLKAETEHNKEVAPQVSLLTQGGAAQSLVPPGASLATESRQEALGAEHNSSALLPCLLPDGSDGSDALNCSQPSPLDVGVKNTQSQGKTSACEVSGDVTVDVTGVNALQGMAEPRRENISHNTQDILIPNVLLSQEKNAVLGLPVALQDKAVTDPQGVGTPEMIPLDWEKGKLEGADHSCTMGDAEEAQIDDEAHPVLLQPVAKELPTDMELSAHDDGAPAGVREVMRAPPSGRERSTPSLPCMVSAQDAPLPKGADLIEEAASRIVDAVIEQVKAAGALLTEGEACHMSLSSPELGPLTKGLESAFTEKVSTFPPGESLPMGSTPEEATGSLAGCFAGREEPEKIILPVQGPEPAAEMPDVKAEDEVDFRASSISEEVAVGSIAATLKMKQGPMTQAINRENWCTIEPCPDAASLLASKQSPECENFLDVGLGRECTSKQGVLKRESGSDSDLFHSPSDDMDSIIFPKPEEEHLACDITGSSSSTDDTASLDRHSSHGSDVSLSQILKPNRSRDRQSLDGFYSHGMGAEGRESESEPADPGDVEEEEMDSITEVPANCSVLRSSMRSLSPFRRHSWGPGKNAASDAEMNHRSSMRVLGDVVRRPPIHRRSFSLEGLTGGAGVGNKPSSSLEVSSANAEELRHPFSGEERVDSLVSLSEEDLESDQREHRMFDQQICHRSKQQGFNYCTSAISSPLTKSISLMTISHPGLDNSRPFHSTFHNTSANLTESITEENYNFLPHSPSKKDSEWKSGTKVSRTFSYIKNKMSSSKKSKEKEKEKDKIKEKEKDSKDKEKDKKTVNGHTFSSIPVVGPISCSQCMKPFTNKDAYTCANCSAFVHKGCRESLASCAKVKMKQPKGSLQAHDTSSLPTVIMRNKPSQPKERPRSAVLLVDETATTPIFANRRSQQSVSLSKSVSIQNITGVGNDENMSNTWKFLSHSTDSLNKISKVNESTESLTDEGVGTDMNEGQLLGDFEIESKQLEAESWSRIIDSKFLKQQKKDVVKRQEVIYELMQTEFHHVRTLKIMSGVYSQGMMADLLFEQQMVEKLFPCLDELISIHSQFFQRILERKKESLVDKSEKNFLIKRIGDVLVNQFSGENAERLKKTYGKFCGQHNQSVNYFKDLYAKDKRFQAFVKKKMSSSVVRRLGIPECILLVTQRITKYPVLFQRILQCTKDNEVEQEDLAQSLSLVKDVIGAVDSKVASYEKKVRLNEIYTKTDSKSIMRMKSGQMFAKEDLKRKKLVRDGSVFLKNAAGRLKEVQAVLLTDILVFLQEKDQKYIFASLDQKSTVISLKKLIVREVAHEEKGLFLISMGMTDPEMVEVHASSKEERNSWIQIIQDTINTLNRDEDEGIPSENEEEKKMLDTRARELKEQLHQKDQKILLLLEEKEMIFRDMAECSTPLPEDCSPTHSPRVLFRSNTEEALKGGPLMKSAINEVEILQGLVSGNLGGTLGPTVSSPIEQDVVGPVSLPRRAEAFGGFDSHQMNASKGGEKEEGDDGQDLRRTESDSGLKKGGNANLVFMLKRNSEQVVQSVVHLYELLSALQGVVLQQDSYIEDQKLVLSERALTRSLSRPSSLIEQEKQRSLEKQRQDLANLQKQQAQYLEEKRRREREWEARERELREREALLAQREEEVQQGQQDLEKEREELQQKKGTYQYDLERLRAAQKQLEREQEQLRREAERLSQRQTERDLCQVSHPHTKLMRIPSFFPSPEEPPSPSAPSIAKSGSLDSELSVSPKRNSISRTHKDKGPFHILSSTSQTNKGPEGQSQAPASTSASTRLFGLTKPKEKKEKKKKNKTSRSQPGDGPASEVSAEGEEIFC
Details: not given
For orientation: A western blot detects proteins with antibodies after separation by electrophoresis.
In turn, “14-3-3 (from UniProt P63104 1-245) (natural protein)” registered a loss of co-precipitated 14-3-3 against wild-type AKAP13 of over 50%.
